Measurements from paper PMC9687425, “Global Regulator AdpA_1075 Regulates Morphological Differentiation and Ansamitocin Production in Actinosynnema pretiosum subsp. auranticum”.

T1: AdpA_1075 (Actinosynnema pretiosum subsp. …, UniProt A0A290Z1C2 1-322)
T1 sequence: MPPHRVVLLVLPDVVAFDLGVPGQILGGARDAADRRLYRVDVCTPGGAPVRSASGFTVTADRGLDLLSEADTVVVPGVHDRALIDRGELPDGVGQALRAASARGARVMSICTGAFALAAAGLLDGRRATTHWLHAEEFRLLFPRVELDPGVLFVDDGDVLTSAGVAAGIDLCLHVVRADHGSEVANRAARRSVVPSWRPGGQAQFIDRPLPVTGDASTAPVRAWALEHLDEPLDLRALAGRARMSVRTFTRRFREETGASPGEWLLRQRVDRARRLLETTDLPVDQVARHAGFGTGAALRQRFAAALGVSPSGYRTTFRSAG

B1: PssgA (dsDNA)
DNA 1: GTGTTGGCCGGAACCACGGTGTTGGCCGGAACCACGGTGTTGGCCGGAACCACG
DNA 2: CGTGGTTCCGGCCAACACCGTGGTTCCGGCCAACACCGTGGTTCCGGCCAACAC
B2: Pasm28 (dsDNA)
DNA 1: CGCAGTGGCCCGAACGGGTCCGCAGTGGCCCGAACGGGTCCGCAGTGGCCCGAACGGGTC
DNA 2: GACCCGTTCGGGCCACTGCGGACCCGTTCGGGCCACTGCGGACCCGTTCGGGCCACTGCG

Columns and labels:
AdpA_1075 [1] = molecular target: T1, AdpA_1075; test: EMSA; protein concentration-dependent shift; excess unlabeled specific DNA competes; Beyotime Chemiluminescent EMSA Kit (buffer, salt and pH not stated); 20 ng biotin-labeled probe, 10 min at room temperature, 5% polyacrylamide gel; settings: protein: recombinant; tags: His6 (pET-28a NdeI/HindIII; the reverse primer keeps the stop codon, so N-terminal tag; named AdpA_1075-His6 in the text); chain copies: 2; label: 5' biotin on strand 1; blunt
AdpA_1075 [2] = molecular target: T1, AdpA_1075; test: EMSA; shifted with 1000 nM protein; excess unlabeled specific DNA competes; Beyotime Chemiluminescent EMSA Kit (buffer, salt and pH not stated); 20 ng biotin-labeled probe, 10 min at room temperature, 5% polyacrylamide gel; settings: protein: recombinant; tags: His6 (pET-28a NdeI/HindIII; the reverse primer keeps the stop codon, so N-terminal tag; named AdpA_1075-His6 in the text); chain copies: 2; label: 5' biotin on strand 1; blunt

Binder | binding result (AdpA_1075 [1]) | binding result (AdpA_1075 [2])
B1 | binds | 
B2 |  | binds
